Source: patent publication US20050232925A1, “Protease activity of thrombin inhibits angiogenesis” (priority 2002, published 2005)

Legend:
[1] = system: 4T1 murine breast cancer cell line; assay: Primary tumor growth of transfected 4T1 cells in BALB/c mice; assay type: in vivo; details: stable expression in 4T1 cells, mammary pad of BALB/c mice, vs empty vector, five weeks
From the text: Construction of mutant uPA clones and cell transfection. We chose to pursue a genetic approach, in which we stably transfected an aggressive and highly metastatic murine breast cancer cell line (4T1) with the genes for wild type uPA, tPA and a receptor binding mutant of uPA (uPAm). We inserted the cDNA encoding murine tPA into pcDNA 3.1 (+) (Invitrogen), a CMV driven mammalian expression vector, by restriction enzyme digestion of BamHI and NheI. Wild type uPA cDNA was inserted to the pcDNA 3.1 (+) expression vector and the transfected into 4T1 cells in a similar fashion as described for the tPA cDNA. Residues 22, 27, 29 and 30 on the growth factor domain of the murine uPA molecule have been implicated in binding to mouse uPAR.
The pcDNA 3.1-tPA, pcDNA 3.1-wild type uPA, pcDNA 3.1-uPAm constructs, as well as an empty vector control were introduced into 4T1 cells by transfection using lipofectamine (Gibco-BRL) reagent. We selected 12-14 stable single clones in each group with 500 ug/mL of hygromycin. Each of the clones was evaluated for generation of the gene of interest by northern blot. The clones that had the highest generation of the genes of interest were selected. […]
Experiments using transfected tumor cells. […] Primary tumor size was measured every other day for a total of five weeks using calipers and calculated using the standard formula (width2×length×0.52). […]

HUVEC cells = assay: In vitro angiogenesis (matrigel tube formation) assay; assay type: cell-based, human; details: in the absence of plasma; rt-PA 1 μg/ml, captopril 0.1 μM
Experimental: In Vitro Angiogenesis (matrigel tube formation) Assay. Unpolymerized matrigel (7 mg/ml) was placed in the wells (100 μl/well) of a pre-chilled 48-well cell culture plate and then incubated at 37° C. for 30-45 minutes. HUVEC cells were harvested in trypsin and resuspended in EC medium (4×10^4 in 300 μl). Cells were treated with the different agents before plated onto the matrigel-coated plates. […] Microphotographs of the center of each well at low power (40×) were taken with a SPOT camera (Diagnostic Instruments Inc; Sterling Heights, Mich.) and the aid of an imaging capture software (Compix Inc Imaging Systems; Township, Pa.). The microphotographs were quantitatively analyzed (total tube length) with the Simple PCI imaging analysis software (Compix).
Matrigel tube formation assays. Samples collected from the purification process were exchanged into 1×PBS and reconstituted into 1× concentration (by volume) compared to the input tPA/captopril-treated plasma. They were tested in the matrigel tube formation assays at 10% (v/v) as follows. […] Tube formation was examined (4× magnification) through an inverted phase contrast microscope (Nikon Corporation; Tokyo, Japan) and recorded by a Spot RT camera (Diagnostic Instruments Inc; Sterling Heights, Mich.) using an automated image capture software (Compix Inc Imaging Systems; Township, Pa.).

Molecule | inhibition of primary tumor growth [1] | inhibition of tube formation (HUVEC cells)
tPA: murine tPA expressed from pcDNA 3.1 in 4T1 cells (not the rt-PA drug) (protein, UniProt P11214 33-559, looked up) Tissue-type plasminogen …: SYRATCRDEPTQTTYQQHQSWLRPMLRSSRVEYCRCNSGLVQCHSVPVRSCSEPRCFNGGTCQQALYFSDFVCQCPDGFVGKRCDIDTRATCFEEQGITYRGTWSTAESGAECINWNSSVLSLKPYNARRPNAIKLGLGNHNYCRNPDRDLKPWCYVFKAGKYTTEFCSTPACPKGKSEDCYVGKGVTYRGTHSLTTSQASCLPWNSIVLMGKSYTAWRTNSQALGLGRHNYCRNPDGDARPWCHVMKDRKLTWEYCDMSPCSTCGLRQYKRPQFRIKGGLYTDITSHPWQAAIFVKNKRSPGERFLCGGVLISSCWVLSAAHCFLERFPPNHLKVVLGRTYRVVPGEEEQTFEIEKYIVHEEFDDDTYDNDIALLQLRSQSKQCAQESSSVGTACLPDPNLQLPDWTECELSGYGKHEASSPFFSDRLKEAHVRLYPSSRCTSQHLFNKTVTNNMLCAGDTRSGGNQDLHDACQGDSGGPLVCMINKQMTLTGIISWGLGCGQKDVPGVYTKVTNYLDWIHDNMKQ | significantly inhibit tumor cell growth | 
rt-PA: rt-PA (Genentech), recombinant tissue plasminogen activator; called tPA in Example 2 (protein, UniProt P00750 36-562, looked up, alteplase) Tissue-type plasminogen …: SYQVICRDEKTQMIYQQHQSWLRPVLRSNRVEYCWCNSGRAQCHSVPVKSCSEPRCFNGGTCQQALYFSDFVCQCPEGFAGKCCEIDTRATCYEDQGISYRGTWSTAESGAECTNWNSSALAQKPYSGRRPDAIRLGLGNHNYCRNPDRDSKPWCYVFKAGKYSSEFCSTPACSEGNSDCYFGNGSAYRGTHSLTESGASCLPWNSMILIGKVYTAQNPSAQALGLGKHNYCRNPDGDAKPWCHVLKNRRLTWEYCDVPSCSTCGLRQYSQPQFRIKGGLFADIASHPWQAAIFAKHRRSPGERFLCGGILISSCWILSAAHCFQERFPPHHLTVILGRTYRVVPGEEEQKFEVEKYIVHKEFDDDTYDNDIALLQLKSDSSRCAQESSVVRTVCLPPADLQLPDWTECELSGYGKHEALSPFYSERLKEAHVRLYPSSRCTSQHLLNRTVTDNMLCAGDTRSGGPQANLHDACQGDSGGPLVCLNDGRMTLVGIISWGLGCGQKDVPGVYTKVTNYLDWIRDNMRP |  | did not cause significant inhibition of tube formation
